# Reference: paper PMC7791966 (Experimental and Therapeutic Medicine, 2020)
# Numbering of substitutions follows the chain as printed.
# B1: e23sFv, mouse anti-HER2 single-chain variable fragment (scFv, V domains shown)
# VH: VQLQESGPEVVKPGGSMKISCKTSGYSFTGHTMNWVKQSHGKNLEWIGLINPYNGDTNYNQKFKGKATFTVDKSSSTAYMELLSLTSEDSAVYYCARRVTDWYFDVWGAGTTVTVS
# VL: DLQLTQSPAILSASPGEKVTMTCRATPSVSYMHWYQQKPGSSPKPWIYTTSNLASGVPARFSGGGSGTSYSLTVSRVEAEDAATYYCQQWSRSPPTFGGGSKLEIK
# B2: EMEY, e23sFv derivative with 11 point mutations in the framework regions (scFv, V domains shown)
# VH: B1 VH with V10L, M17V, T23A, N43G, F69L, L83S
# VL: B1 VL with S41T, P45L, G64S, V74I, S101T
# Target: Recombinant human HER2 (Homo sapiens, UniProt P04626)
# Test: SPR
binder,measurement,value
B1,Kd,2.5 nM
B2,Kd,~500 nM
